Measured values: the supplement of paper PMC9170038

System: K4 kissing-loop RNA reporter
Test: apparent KD of K4 kissing-loop reporter; higher = weaker reporter binding
Conditions: Eterna round: R107
Description: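 RNA-MaP round R107: designed RNA switches with theophylline, tryptophan, arginine or FMN aptamers are transcribed on-chip within common flanks. They are titrated with a labelled K4 kissing-loop RNA reporter in RNA-MaP buffer (100 mM Tris pH 7.5, 80 mM KCl, 4 mM MgCl2), without ligand or with the indicated ligand. Median apparent KD per design.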

[1] = input ligand: theophylline 20 uM
[2] = input ligand: tryptophan 2.4 mM
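Further: bound reporter read as fluorescence of individual clusters on recovered sequencing chips by microscopy, with normalized cluster intensities fitted with a binding model.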

Row | Sequence | apparent KD of K4 kissing-loop reporter (input ligand: FMN 200 uM) [nM] | apparent KD of K4 kissing-loop reporter (input ligand: arginine 13.2 mM) [nM] | apparent KD of K4 kissing-loop reporter (input ligand: none) [nM] | apparent KD of K4 kissing-loop reporter [1] [nM] | apparent KD of K4 kissing-loop reporter [2] [nM]
1 | AAGCAGUCUCUUGUAGUCAUCGAAGAUGAACGAGGACCGGUACGGCCGCCACUCGGAGUGAUGUUCCGAAGGCUGCAAAAUAAAA [MatMod 18 - Jieux - Exclusion - Tryptophan A] | 300 | 297 | 309 | 404 | 324
2 | CUGUAUCAUAUUGAUACCAGAGAAAGAACCAGUGAUGUUGGAAAAGACGAAUAAAUUAUACUCCCUUGGCAGCGGAAAUGAACAG [Totally accidental] | 73 | 85.6 | 75.8 | 105 | 59.9
3 | UAUAUAUGAUGUGAUACCAGUGAAAAGCCAGUGAUGUUGGAGGAGCUGGUAUAUAAAUAAGACCCUUGGCAGCACAAUCACGUAU [#01 K4 Theophylline B Exclusion] | 227 | 202 | 212 | 221 | 214
4 | AAUACGCCGAAAGGAUAUAUAGAACAUCAAGGGCGCUGACUUUGCUAAAUCACAAGUGAUGUUUGUAUAGAAGGUUCGCAGUCAA [theeternabot_exclusion_KL_FMN_B_30] | 245 | 427 | 500 | 452 | 437
5 | UCCUGCACGGUCGAUACCAGCCUAUGCAGUGAUGUUGUAAGGUUGUCACUUUAGUACGAAGGCCCUUGGCAGCGAUGAUGUAACA [theeternabot_exclusion_KL_Theo_B_41] | 601 | 470 | 604 | 504 | 464
6 | UGUCAUUGGUCGGCCGCCACUUCGUAUGAAGUGAUGUUUUGUAGAUUGUGUUGAAAGGUAUGGUGAAGGACCGGGACCGAUGACU [FiskerMod 22 - Jieux - Same State - Tryptophan B] | 516 | 266 | 765 | 203 | 508
7 | AGUGAUGUAUGGCGGUGUGUCGCUUAAAAUCAGGAUAUAUAAACAAAUAGAAGGGAUGGCGGAGUGAUGUUCCGCCGGCCGCCAU [FMN A Exl V2] | 127 | 118 | 134 | 136 | 128
8 | AAACAUCACUGGGAGUGAUGUUCUCAGUGACGAGGACCGGUACGGCCGCCACUCGCGAGAGAUUUAGUCUAGUAUUGACUGCAUU [Excl Tryptophan A V11] | 294 | 273 | 304 | 353 | 358
9 | GUGAAGGAGCUGCAGUGAUGUUGCAGAAACUAGGAUAUCAGGAAACUGAGAAGGAGUCAACUCCUUCACCUAAAUACUGCAGAAA [KL-SSFMN-A23] | 104 | 130 | 158 | 157 | 147
10 | CGCGCCCAGCCGGAUACCAGUGACCCGCUGGGAACCGCGGGCCCAGAGUGAUGUUCGGGACACCCUUGGCAGCCGCCUGGGCGGG [#2 Same State - Theophylline B Attempt #16 (HarryS)] | 1350 | 606 | 597 | 460 | 608
11 | AGGCACGAGCAAGGAUAUUGAGUAGAGUGAUGUUCUGCCUGGGUUGGCUCGUAAGAGCCUUCUCAGCGAGAAGGUGCUCGUGCCU [#2 Same State - FMN A Attempt #23 (HarryS)] | 254 | 432 | 679 | 552 | 636
12 | GCAGUGAUGUUGCGGAUGUACAGUGGAGUGCGAGGACCGGUACGGCCGCCACUCGUACAGAACAAGCUAAUAUAUCGAUAGGUGA [X] | 203 | 242 | 263 | 282 | 157
13 | UGUAUGUGAUGUGAUACCAGUGAAGAGCCAGUGAUGUUGGUAGAACUGGUAUAUAAAUAACACCCUUGGCAGCACAAUCACGUAC [whbob_Ex_Theo_B_sa99] | 289 | 243 | 286 | 320 | 314
14 | GAUGGUGGCAGUGAAGUGAUGUUUCAUGAUACCAGUUUUAUAAGUAACCCUUGGCAGCAUCGUACGCAGCGUAGUGGACAUCACG [theeternabot_exclusion_KL_Theo_A_25] | 129 | 128 | 140 | 241 | 149
15 | AGUAGAGCAUCAGAUACCAGACAGAACUGAUGGUAAGGAGUGAUGUUCCUUAAUCAGCUUGUCCCUUGGCAGCUGAUAAUAGUCA [#13 K4 Theophylline B Same State] | 423 | 437 | 475 | 359 | 438
16 | CCAUCGCUAUUCGAUACCAGCUACUUAGUGAUGUUAAGUUAAAAUAAAUUGUAGAUUAAAAGCCCUUGGCAGCGAAUAGUGAUGG [Theophylline B K4 19] | 149 | 134 | 150 | 103 | 136
17 | UAUUUAAAUAAAAUAAAAUAAAUUGCUGAUACCAGAGCCAAUUGGCUCCCUUGGCAGCGGAUCGAGUGAUGUUCGUAAAAUUUAU [AK2 SS Theophylline A] | 28.5 | 65.4 | 29.6 | 61.5 | 30.3
18 | UGAACCCGGUCGGCCGCCACUCUGAGAACCAUCGCCCUACGUGCAGUGAUGUUGUACCUAAUGAGGAGGACCGGGACUGGGCGGC [theeternabot_sameState_KL_Trp_B_36] | 316 | 277 | 360 | 204 | 223
19 | AACCACUCGUUACAUCACUAUCGAGUGGAACGAGGACCGGUACGGCCGCCACUCGAUAAGAUGCAGUGAUGUUGCAUCUAAGAAU [KL-SSTryp-A (BrourdMod)5 #dotplot2 strengthened] | 208 | 168 | 183 | 192 | 141
20 | AUUCUGUUUUUGAUGUUUAUUGUAUAAUGGCAGGAUAUCGUAGAAGCGAGAAGGGCUUUUAUGCGUUAUGAGUGAUGUUUGUAGG [eyeefvmullin] | 373 | 260 | 284 | 319 | 256
21 | GGAUCCACCAGUGAUGUUGGAGAAAACUCCAAGGAUAUGACGAAAGUCAGAAGGUGGUAAUAAGACGUCAAAGACGUCGGAUCCA [FmnA 19 #SwitchBubble #K4Early] | 1400 | 149 | 101 | 323 | 150

Row | Sequence | apparent KD of K4 kissing-loop reporter (input ligand: FMN 200 uM) [nM] | apparent KD of K4 kissing-loop reporter (input ligand: arginine 13.2 mM) [nM] | apparent KD of K4 kissing-loop reporter (input ligand: none) [nM] | apparent KD of K4 kissing-loop reporter [1] [nM] | apparent KD of K4 kissing-loop reporter [2] [nM]
22 | UGUCAUUGGUCUGAUACCAGUUGAUAAACUGGAGUGAUGUUCCAAGAACGAGAAACUCGCAACCCUUGGCAGCAGACCGAUGACU [TheoBS 17 #SwitchBubble 13 #StaticStem] | 302 | 66.9 | 170 | 400 | 132
23 | UUUUAAAUGUCUGAUACCAGAGAAAAUAUAUGUAGUGAUGUUACAUACAAAUUUAAUAAGCUCCCUUGGCAGCAGUAUGAAUUUU [AstrosExc-TheB#15] | 44.6 | 66.7 | 55.9 | 67 | 49.5
24 | UGAUACCAGACGGCCGCCACUCUUGCAGUCAAAGACUGCUAAAAGGAAAUCGUCCAGUGAUGUUGGAGGACCGGGUCUGGUAUCU [TrypBX 15 #SwitchBubble #Palindromic #StaticStem] | 1420 | 774 | 1370 | 774 | 736
25 | CGUUUAUAGCAGGAUACCAGUACCCAUUAUGUACGUUUAUAGUAGAGUGAUGUUCUAAAGUACCCUUGGCAGCUUCCCGUGACCC [ExTheophylB.Z] | 113 | 171 | 131 | 179 | 85.4
26 | GUUACGCAUGGAAGGAGCGCACUCCGAUUGGGCGACGCAGUGAUGUUGUGGUUCGUUCGAAUGCAGGUAGGUCGCCAUGUGUAAC [Ex Arginine B K4 21] | 186 | 172 | 176 | 141 | 192
27 | AAUGUACAAGUGAUGUUUGUACUUUCCGAAGGAGCGUCUAAUAAGACAGGUAGGUCGCGGAUUCUCUUAAUUAUCAGGUCAUUAA [JR_ExcArginiA_Sub017] | 89.6 | 81.3 | 86.2 | 80.6 | 81.6
28 | AGGUUUUGAUUAGGAUAUGCACUGACGACGAGAAUAUAGUGAUGUUAUAUAAUACGAAUUAGUAGAGUAGAAGGGAUUGAGGUUU [SSFMNB.X] | 422 | 307 | 348 | 390 | 286
29 | AUAAUUAUAUAGAAAUAUAUAAUUAUAUAACGAGGACCGGUACGGCCGCCACUCGUGCCGGGCAUAAAAUGAGUGAUGUUCAUGU [KL-XTryp-A7 #analogue] | 205 | 228 | 212 | 193 | 198
30 | GAUUUAGAGGCGGCCGCCACUAGUGAUGUUAGUGAUGUUUGAUACUGUAUAUAUCGGCGUGUAGAUAGGACCGGGCCAGAUGGAG [tbqqmullin] | 281 | 157 | 235 | 229 | 221
31 | UCCUAGGCUCGAAAGAGCCUAGGAUUAUCUCAGGAUAUCCGGAAACGGAGAAGGGAGAAACUAGUGAUGUUAGGGAUUCCCUCUU | 421 | 110 | 145 | 135 | 126
32 | AAUGAUGAUUGACACAUUUACUAAAAGGAAGGAGCGGCGAAGUAGCCAGGUAGGUCGCCUUAUAGCAGUGAUGUUGCUAUUUGUU [JR_Nu_ExcArginiA_Sub027] | 59 | 106 | 83.1 | 105 | 76.2
33 | UUAAUAAUUCAAGGAUAUGUUUUUUUUUUCGAGUGAUGUUCGGAAUUAAUAAAUUUAAAAGAUUAUACAGAAGGUGAUAAAUAGU [Cynwulf-mod#1] | 103 | 91 | 88.3 | 103 | 88.6
34 | AAUAAUAAUAAAUAAAGAUUGAUGAGCAAACGAGGACCGGUACGGCCGCCACUCGAGUGAUGUUCGAGAAGCUCAUCAAUCAUAA [AK4.8 Exc Tryptophan A] | 147 | 134 | 138 | 112 | 337
35 | AACAAGGGAUGUCAGUGAUGUUGUACGUCGCGAGGACCGGUACGGCCGCCACUCGUAAUACACAGAUGAGGGUUCUUUCUCUGAU [theeternabot_sameState_KL_Trp_A_49] | 305 | 179 | 268 | 265 | 228
36 | UGAUACCAGACGGCCGCCACUCCCGUAAGUCAAAGACUUACCAAGAGUAUCGUCCAGUGAUGUUGGAGGACCGGGUCUGGUAUCU [FiskerMod 9 - Jieux - Exclusion - Tryptophan B] | 376 | 321 | 330 | 320 | 829
37 | AAUUAAUACAGAAGGAGCGUGUUUUUUAAUUUAUUUUCAUGAUCGAGUGAUGUUCGAUAUACACAGGUAGGUCGCUGUAUAUUUA [JR_SSArginiB_Sub008] | 98.8 | 142 | 113 | 139 | 92.1
38 | UACACGACUCGUGUAAACCGAGGUAACAGGCAGGAUAUGUAACGGAACAGAAGGGCCAUGUAGCGUGUCCAGUGAUGUUGGAUGC [Betilare] | 199 | 166 | 186 | 180 | 173
39 | GGAGGGAUCUCGGCCGCCACUCAUAAGAAAUGGGCCUCAGAGAUAUAGUGAUGUUAUGUAAAGAAGAGGACCGGGAGAAAGAAGG [ExTryptoB.Db] | 148 | 141 | 141 | 135 | 144
40 | GCUAGGAUGGCAGGAUAUAGUUCGUGAGUGAUGUUCAAAGAACUAAGAGGGACACCUCAUUCUAAACUAGAAGGGCCAUCCUAGC | 246 | 275 | 276 | 421 | 337
41 | UUCCUAUUAUUAACACUAUAUACAACUGAAGGAGCGACAAUAAAGUCAGGUAGGUCGCAGAAUUAAUGAGUGAUGUUCAUUUUUA [JR_ExcArginiA_Sub013] | 81.9 | 141 | 96.6 | 124 | 60.9
42 | GUGCGGCUAGUGAUGUUGGUUGCGUGGGAAGGAGCGCAGAAACAUGCAGGUAGGUCGCCCACACCUCUGAAAGGAGGUUAAUUCA [Diusdige] | 200 | 172 | 133 | 171 | 248
